Data on one substance can be found in paper PMC11289882, “Site-directed allostery perturbation to probe the negative regulation of hypoxia inducible factor-1α” (RSC Chemical Biology, 2024).

Assay [1] deals with CITED2 218-256 218-256 (Homo sapiens) (UniProt Q99967). The experiment in a line: ITC. Background: Isothermal titration calorimetry measures the heat released or taken up as one component is titrated into another.
Assay [2] concerns the target CITED2ΔN 224-256 (Homo sapiens) (UniProt Q99967). Briefly: ITC.
The target in assay [3] is CITED2 218-256 218-256 (Homo sapiens) (UniProt Q99967). The experiment in a line: fluorescence anisotropy competition. In general terms: Fluorescence polarisation rises when a labelled molecule tumbles more slowly, as on binding a larger partner.
Assay [4] concerns the target CITED2ΔN 224-256 (Homo sapiens) (UniProt Q99967). Briefly: fluorescence anisotropy competition.
For assay [5], the target named is Flu-HIF-1α 786-826 (Homo sapiens) (UniProt Q16665). Briefly: anisotropy.
Chain of Flu-HIF-1α 786-826 (Homo sapiens) (Q16665 786-826): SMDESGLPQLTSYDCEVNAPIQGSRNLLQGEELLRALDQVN

Chain of p300 TAZ1 330-420, Q09472 (Q09472 330-420): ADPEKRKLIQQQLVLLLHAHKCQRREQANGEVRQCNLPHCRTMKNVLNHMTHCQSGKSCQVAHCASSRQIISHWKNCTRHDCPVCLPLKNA
Chain of CITED2ΔN 224-256 (Homo sapiens) (Q99967 224-256, stated change not applied): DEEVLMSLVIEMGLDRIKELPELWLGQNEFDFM
Chain of CITED2 218-256 218-256 (Homo sapiens) (Q99967 218-256): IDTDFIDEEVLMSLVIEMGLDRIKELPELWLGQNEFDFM

What is called Kd is the equilibrium constant for the complex coming apart. For p300 TAZ1 330-420, Q09472, the dissociation constant Kd in assay [1] came to 10.6 nM; in assay [2] it was 50.5 nM; in assay [3] it was 2 nM; in assay [4] it was 86 nM; in assay [5], 64 nM.
